Measured values as given in PMC6156607.

Target: Full-length human RAB5 (RAB5A), purified, fluorescently labelled (human) (UniProt P20339)
Test: MST

UniProt P20339, sequence (P20339 whole entry): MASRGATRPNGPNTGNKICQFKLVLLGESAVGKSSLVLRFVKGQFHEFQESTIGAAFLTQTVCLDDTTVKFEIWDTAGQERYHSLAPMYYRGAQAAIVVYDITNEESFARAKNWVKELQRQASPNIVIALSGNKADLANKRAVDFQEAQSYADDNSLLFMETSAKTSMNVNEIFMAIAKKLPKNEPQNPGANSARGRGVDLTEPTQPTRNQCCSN

6x His-tagged Etf-2^ΔHY (Etf-2 lacking the hydrophobic domain, amino acids 132-151) (natural protein)
Kd: 21.3 nM
